We go through one molecule from article PMC4627807, “Klotho Regulates 14-3-3ζ Monomerization and Binding to the ASK1 Signaling Complex in Response to Oxidative Stress” (PLoS ONE, 2015).

One assay deals with T1, 14-3-3ζ (human (endogenous in HEK 293), UniProt P63104 1-245).
T1 construct: 14-3-3ζ, endogenous in HEK 293 cells; Klotho treatment of the cells raises phosphorylation at Ser-58 and the monomer level; the phosphorylated form was not isolated as a molecule of its own; also called 14-3-3zeta; endogenous 14-3-3ζ; source: endogenous, HEK 293 lysate
T1 sequence (looked up): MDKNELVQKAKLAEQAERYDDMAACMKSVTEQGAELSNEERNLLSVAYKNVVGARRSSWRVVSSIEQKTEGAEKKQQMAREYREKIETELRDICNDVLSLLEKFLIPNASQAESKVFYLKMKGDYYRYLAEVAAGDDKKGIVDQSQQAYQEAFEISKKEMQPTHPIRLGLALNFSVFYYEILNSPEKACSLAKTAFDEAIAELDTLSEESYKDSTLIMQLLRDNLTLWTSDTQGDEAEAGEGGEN
Kind of assay: co-IP; endogenous proteins; HEK 293 lysate precipitated with 14-3-3ζ antibody, protein A agarose; Trx by Western blot; cells treated with buffer, 200 pM Klotho or NAC for 40 min; Trx released from the beads only with DTT, 2-ME or THP. The following applies: partners not purified.

Assay [1] concerns the target GST-tagged 14-3-3ζ dimer deficient mutant (Dm) (UniProt P63104). Kind of assay: pull-down; lysates of HEK 293 cells transfected with GST-14-3-3ζ Wt or Dm adsorbed onto glutathione sepharose, binding buffer 20 mM Tris-Cl pH 7.5, 2 mM EDTA, 1 mM EGTA, 80 mM NaCl; endogenous Trx by Western blot; cells treated with buffer or secreted Klotho for 40 min. On the technique in general: Immunoblotting shows a protein as a band on a membrane.

B1: thioredoxin (Trx) (natural protein, human (endogenous in HEK 293), UniProt P10599 1-105, looked up)
chain: MVKQIESKTAFQEALDAAGDKLVVVDFSATWCGPCKMIKPFFHSLSEKYSNVIFLEVDVDDCQDVASECEVKCMPTFQFFKKGQKVGEFSGANKEKLEATINELV
notes: thioredoxin (Trx), endogenous in HEK 293 cells; active site cysteines named as Cys32/35; Detected by Western blot or iCE with a Trx antibody; source: endogenous, HEK 293 lysate
With B1, the “fold increase of bound Trx, Klotho-treated versus buffer-treated cells” value with 14-3-3ζ is approximately 2 fold. The fold increase of bound Trx relative to 14-3-3ζwt in assay [1] stood at 2 fold.
